Laboratory results as given in article PMC5386385, “DRP-1 is required for BH3 mimetic-mediated mitochondrial fragmentation and apoptosis” (Cell Death & Disease, 2017).

Legend:
[1] = molecular target: WT MCL-1 fusion protein (N-terminal His6-tag fused to amino acids Glu173-Arg329, containing the BH3, BH1 and BH2 domains) (human) (UniProt Q07820); assay: differential scanning fluorimetry (thermal shift assay); purified MCL-1 proteins (10 uM) with or without the indicated concentrations of ligand, Sypro-Orange, thermal ramping 0.3 °C per min between 25 and 94 °C, final DMSO 4% v/v; ΔTm against buffer without peptide
Chain of WT MCL-1 fusion protein (N-terminal His6-tag fused to amino acids Glu173-Arg329, containing the BH3, BH1 and BH2 domains) (human) (Q07820 173-329): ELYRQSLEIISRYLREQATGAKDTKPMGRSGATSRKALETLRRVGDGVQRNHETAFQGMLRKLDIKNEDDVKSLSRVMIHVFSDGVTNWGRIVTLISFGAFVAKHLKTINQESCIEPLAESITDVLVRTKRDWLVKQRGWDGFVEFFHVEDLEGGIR

[2] = molecular target: T1, WT MCL-1 fusion protein (N-terminal His6-tag fused to amino acids Glu173-Arg329, containing the BH3, BH1 and … (human, UniProt Q07820 173-329)); assay: as above; conditions: both partners purified
T1 construct: human MCL-1, amino acids E173-R329 (BH3, BH1 and BH2 domains); the results once say 172-329; Cloned into pOPIN F; also called MCL-1 (E173-R329); MCL-1 protein (173-329); source: E. coli BL21 (DE3) pLysS, purified (Ni-NTA IMAC, Superdex 200 SEC)
T1 sequence (Q07820 173-329): as above

| binding result [2] | Molecule | further results |
| --- | --- | --- |
|  | MCL-1 SAHB (stabilised alpha-helix of BCL-2 domains, designed to mimic the BH3 binding helix of MCL-1) (peptide) | thermal shift (ΔTm) at 10 uM [1]: 4 °C |
|  | RPEIWMTQGLRRLGDEINAYYAR (MCL-1 specific synthetic BH3 peptide; source: synthetic peptide (New England Peptide or GenScript)) [MS-1 (MCL-1 specific synthetic peptide)] | temperature shift (ΔTm) at equimolar peptide and MCL-1 [2]: ~10 °C |
| binds | AELPPEFAAQLRKIGDKVYC (synthetic BH3 peptide of NOXA; source: synthetic peptide (New England Peptide or GenScript)) [NOXA peptide] |  |
| binds | EQWAREIGAQLRRMADDLNA (synthetic BH3 peptide of PUMA; source: synthetic peptide (New England Peptide or GenScript)) [PUMA peptide] |  |
